T1: Fusion protein of extracellular domain of human TIGIT and mouse IgG2a Fc fragment (human TIGIT ECD-mFc) (human)
T1 construct: The entry includes the signal peptide (limits not recoverable) and the mouse IgG2a Fc
T1 chain: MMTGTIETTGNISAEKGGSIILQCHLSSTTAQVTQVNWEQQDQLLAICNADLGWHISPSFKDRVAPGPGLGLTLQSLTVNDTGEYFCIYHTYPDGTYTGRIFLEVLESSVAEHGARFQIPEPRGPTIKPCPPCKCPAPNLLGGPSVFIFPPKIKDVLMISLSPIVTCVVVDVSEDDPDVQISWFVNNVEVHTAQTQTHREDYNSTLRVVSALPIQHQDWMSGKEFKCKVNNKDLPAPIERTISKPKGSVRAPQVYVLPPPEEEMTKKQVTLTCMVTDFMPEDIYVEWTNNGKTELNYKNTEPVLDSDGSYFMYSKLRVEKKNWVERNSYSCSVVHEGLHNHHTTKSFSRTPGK

T2: human TIGIT ECD-mFc (human)
T2 construct: also called human TIGIT protein; fusion protein of extracellular domain of human TIGIT and mouse IgG2a Fc fragment
T2 chain: T1 chain

T3: Full-length human TIGIT on CHO-K1 cells (CHO-K1 human TIGIT) (human, UniProt Q495A1 22-244)
T3 construct: NCBI XP_024309156.1; the entry includes the signal peptide (limits not recoverable); The strain (high, medium, low) is named under assay; also called high expression strain 1D2; medium expression strain 2D10
T3 sequence: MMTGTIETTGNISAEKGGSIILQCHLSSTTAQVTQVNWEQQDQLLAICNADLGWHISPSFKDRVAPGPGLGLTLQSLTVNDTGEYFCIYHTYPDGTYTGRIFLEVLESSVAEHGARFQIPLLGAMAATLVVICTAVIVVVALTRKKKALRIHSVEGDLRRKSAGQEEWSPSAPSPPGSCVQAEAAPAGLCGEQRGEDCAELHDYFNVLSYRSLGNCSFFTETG

T4: Fusion protein of extracellular domain of human TIGIT and His-tag (human TIGIT ECD-his) (human)
T4 chain: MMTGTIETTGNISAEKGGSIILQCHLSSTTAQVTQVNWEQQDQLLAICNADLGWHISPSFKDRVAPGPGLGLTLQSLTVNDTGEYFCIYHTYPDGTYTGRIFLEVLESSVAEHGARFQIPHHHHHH

B1: TIGIT-070-H2L2 (antibody, V domains shown)
VH: EVQLVQSGAEVKKPGASVKVSCKASGYTFTNYYMHWVRQAPGQRLEWMGRIDPDSGGSKYNEKFKSRVTITVDKLSSTAYMELSSLRSEDTAVYYCAREGHYGFYSDYWGQGTTVTVSS
VL: DIQMTQSPSSLSASVGDRVTITCRVSENIYSYLAWYQQKPGKSPKLLVYNAKTLAEGVPSRFSGSGSGTDFTLTISSLQPEDFATYYCQHHYGNPLTFGPGTKVDIK
notes: Humanized anti-TIGIT antibody
B2: TIGIT-070-H2L3 (antibody, V domains shown)
VH: B1 VH
VL: DIVMTQSPDSLAVSLGERATINCRVSENIYSYLAWYQQKPGQSPKLLVYNAKTLAEGVPDRFSGSGSGTDFTLTISSLQAEDVAVYYCQHHYGNPLTFGPGTKVDIK
notes: Humanized anti-TIGIT antibody
B3: TIGIT-070-H3L1 (antibody, V domains shown)
VH: B1 VH with R44G
VL: B1 VL with V48I
notes: Humanized anti-TIGIT antibody
B4: TIGIT-070-H3L3 (antibody, V domains shown)
VH: B1 VH with R44G
VL: B2 VL
notes: Humanized anti-TIGIT antibody
B5: TIGIT-070-H3L2 (antibody, V domains shown)
VH: B1 VH with R44G
VL: B1 VL
notes: Humanized anti-TIGIT antibody
B6: TIGIT-070-H1L3 (antibody, V domains shown)
VH: B1 VH with L75S, S76A
VL: B2 VL
notes: Humanized anti-TIGIT antibody
B7: TIGIT-005-H2L1d (antibody, V domains shown)
VH: EVQLVQSGAEVKKPGASVKVSCKASGYAFTNYLIEWVRQAPGQRLEWMGVINPGSGGTNYKEKFKGRVTITADKSSSTAYMELSSLRSEDTAVYYCARGEYFFFDYWGQGTTVTVSS
VL: DIVMTQSPDSLAVSLGERATINCKASQHVSNAVAWYQHKPGQSPKLLIYSASYRYTGVPDRFSGSGSGTDFTLTISSLQAEDVAVYYCQQHYNTPHTFGGGTKVEIK
B8: TIGIT-002-H4L3 (antibody, V domains shown)
VH: EVQLQESGPGLVKPSETLSLTCAVSGYSITSDSWNWIRQPPGKKLEYIGYISYSGNTYYNPSLKSRVTISRDTSKNQFSLKLSSVTAADTAVYYCARLDFSNYGGAVDYWGQGTTVTVSS
VL: B7 VL with H28N, S30R, N31T, H38Q, L47M, H91Y, N93T, H96W

Substitutions are numbered along the chain they refer to.

T5 sequence (chain, as listed by the source limits assumed): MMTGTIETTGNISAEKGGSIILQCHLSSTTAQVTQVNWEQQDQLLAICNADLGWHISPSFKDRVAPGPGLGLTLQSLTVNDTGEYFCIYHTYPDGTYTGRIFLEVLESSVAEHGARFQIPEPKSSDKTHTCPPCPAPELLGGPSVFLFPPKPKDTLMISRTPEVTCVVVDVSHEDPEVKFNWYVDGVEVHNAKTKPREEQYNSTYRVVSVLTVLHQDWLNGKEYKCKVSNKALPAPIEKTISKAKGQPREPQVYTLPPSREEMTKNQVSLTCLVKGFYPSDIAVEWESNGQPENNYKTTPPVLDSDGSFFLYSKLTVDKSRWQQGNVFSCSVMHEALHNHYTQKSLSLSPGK
T6 sequence (chain, as listed by the source limits assumed): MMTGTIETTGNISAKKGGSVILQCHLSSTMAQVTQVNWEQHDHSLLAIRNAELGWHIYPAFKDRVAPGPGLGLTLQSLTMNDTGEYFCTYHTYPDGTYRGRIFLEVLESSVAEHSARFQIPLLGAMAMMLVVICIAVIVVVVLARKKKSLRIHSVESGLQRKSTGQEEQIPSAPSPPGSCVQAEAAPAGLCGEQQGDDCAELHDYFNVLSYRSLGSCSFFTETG

In one assay the target is T1, Fusion protein of extracellular domain …. Put plainly: ELISA, human TIGIT ECD-mFc. The method in brief:
(§1)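 Antibodies diluted to 13 nM in 1% BSA, then 3-fold serial dilution for 12 concentrations, incubated with milk-blocked plates at 37° C for 1.5-2 h. Bound antibody detected with HRP-labelled secondary antibody (1:5000, 37° C, 1 h) and TMB, stopped with 1M HCl; OD450 nm read.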
Turning to B1, the concentration giving a half-maximal response (EC50) stood at 0.0125 nM.
On the same count and under the same terms, for B2 the value was 0.0119 nM; for B3, 0.0131 nM.
Same read-out and setting: for B4 the value was 0.0151 nM.
Same read-out and setting: for B5 the value was 0.0143 nM; for B6, 0.0148 nM.

The next assay concerns the target T2, human TIGIT ECD-mFc. Put plainly: ELISA, human TIGIT ECD-mFc captured by anti-mouse IgG. How it is done:
(§2) After washing with blocking buffer, the plate was added with 50 μL/well of 30 ng/ml human TIGIT ECD-mFc (in house) or cynomolgus monkey TIGIT ECD-mFc (in house) and incubated at 37° C. for 2.0 hours. After washing the plate, the serial diluted antibodies (initial concentration 13 nM, 3-fold serial dilution, 12 concentration points) were added into the plate (50 μL/well) and incubated at 37° C. for 2.0 hours. After washing the plate, the goat anti-human IgG Fc-HRP (Merck, Cat NO. AP113P)) working solution (dilution ratio 1:5000, 50 μL/well) were added into wells and incubated at 37° C. for 1.0 hour. A HRP substrate, TMB (KPL, Cat NO. 5120-0077) was added into wells after washing the plate again for color development. After adding a termination solution to terminate the reaction, the absorbance value was read by a microplate reader (PE, Ensight-HH3400). An antibody binding curve was drawn with molar concentration of antibodies as the abscissa and the corresponding OD value as the ordinate. The EC50 value was calculated by using a Four Parameter Logistic Fit (GraphPad Prism9). […] The positive control antibodies are RG6058-hIgG1, TIGIT-002-H4L3 and TIGIT-005-H2Lld; and the negative control antibodies are anti-Fluorescein-hIgG1 (in house). The binding results of the 4 humanized bispecific antibodies to human TIGIT protein are shown in FIG. 43 and Tables 42 and 43, and the binding results to cynomolgus monkey TIGIT are shown in FIG. 44 and Tables 42 and 43.
B7: the “% relative activity RG6058-hIgG1/tested antibody” value amounted to 117%, the “% relative activity TIGIT-005-H2L1d/tested antibody” value worked out at 100% and the 50% effective concentration (EC50) was determined as 0.0429 nM.

The next assay concerns the target T5, Fusion protein of extracellular domain of human TIGIT and human IgG1 Fc fragment (human TIGIT ECD-hFc) (human).
T5 construct: The entry includes the signal peptide (limits not recoverable) and the human IgG1 Fc
The assay is described as follows: blocking of TIGIT ECD-hFc binding to CHO-K1 CD155 cells. The essentials: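 Inhibition was expressed as IC50 values derived from the inhibition curves of a cell-based ELISA. CHO-K1 CD155 cells were cultured overnight, fixed, and blocked with 5% skim milk-PBS. Antibodies were first premixed for 0.5 h with human TIGIT ECD-hFc at a working concentration of 30 ng/mL, and the mixture was then added to the cells for 1.5-2 h at 37° C. Bound TIGIT was detected with HRP secondary antibody (1:5000, 37° C, 1 h) and TMB, and read as OD450 nm.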
B1 returned an IC50 of 0.448 nM.
Still for that read-out and setting: then B2, with 0.35 nM; and B3, with 0.463 nM.
Same read-out and setting: for B4 the value was 0.417 nM; for B5, 0.423 nM; for B6, 0.445 nM.

The target of another assay is T3, Full-length human TIGIT on CHO-K1 cells …. Put plainly: cell binding, CHO-K1 human TIGIT high expression strain. The essentials:
(§3)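 Binding was measured by flow cytometry after a 60-minute, 4° C incubation of the antibodies with 2×10⁵ CHO-K1 cells displaying full-length human or cynomolgus monkey TIGIT. Antibody titration: 12 points, threefold serial dilution from 80 nM, in 1% BSA-PBS.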
Consider B1, for which the midpoint of the response, the EC50, lay at 0.0312 nM.
As for B2, the EC50 was 0.0209 nM.
Still for that read-out and setting: for B3 the value was 0.0132 nM; for B4, 0.03 nM; for B5, 0.0276 nM.
Same read-out and setting: for B6 the value was 0.024 nM.

Another assay addresses T6, Full-length cynomolgus monkey TIGIT on CHO-K1 cells (CHO-K1 cynomolgus monkey TIGIT) (cynomolgus monkey).
T6 construct: NCBI XP_015300911.1
Put plainly: cell binding, CHO-K1 cynomolgus monkey TIGIT. The method in brief: as §3
For B1, the concentration giving a half-maximal response (EC50) turned out to be 0.0662 nM.
B2 yielded a half-maximal effective concentration (EC50) of 0.0774 nM.
The same measure, in the same setting: then B3, with 0.0741 nM; and B4, with 0.0556 nM; and B5, with 0.0665 nM.
The same measure, in the same setting: then B6, with 0.112 nM.

The target of a further assay is T2, human TIGIT ECD-mFc. Put plainly: ELISA, human TIGIT ECD-mFc captured by anti-mouse IgG. The source holds these as a separate data set. How it is done:
as §2
B8: the “% relative activity RG6058-hIgG1/tested antibody” value is 135%, the “% relative activity TIGIT-002-H4L3/tested antibody” value is 100% and a half-maximal response (EC50) required 0.0374 nM.

For the next assay, the target named is T7, cynomolgus monkey TIGIT ECD-mFc (cynomolgus monkey).
T7 construct: also called cynomolgus monkey TIGIT protein
The assay is described as follows: ELISA, cynomolgus TIGIT ECD-mFc captured by anti-mouse IgG. How it is done: as §2
B8: the “% relative activity RG6058-hIgG1/tested antibody” value was 111%, the “% relative activity TIGIT-002-H4L3/tested antibody” value worked out at 100% and the response was half-maximal at 0.0415 nM (EC50).

Another assay deals with T7, cynomolgus monkey TIGIT ECD-mFc. The assay is described as above. This is another data set of the same source. How it is done:
as §2
B7: the “% relative activity RG6058-hIgG1/tested antibody” value is 103%, the “% relative activity TIGIT-005-H2L1d/tested antibody” value was found to be 100% and a half-maximal effect (EC50) was put at 0.0446 nM.

The target in a further assay is T8, Fusion protein of extracellular domain of cynomolgus monkey TIGIT and mouse IgG2a Fc fragment (cynomolgus … (cynomolgus monkey)).
T8 construct: The entry includes the signal peptide (limits not recoverable) and the mouse IgG2a Fc
T8 sequence (chain, as listed by the source limits assumed): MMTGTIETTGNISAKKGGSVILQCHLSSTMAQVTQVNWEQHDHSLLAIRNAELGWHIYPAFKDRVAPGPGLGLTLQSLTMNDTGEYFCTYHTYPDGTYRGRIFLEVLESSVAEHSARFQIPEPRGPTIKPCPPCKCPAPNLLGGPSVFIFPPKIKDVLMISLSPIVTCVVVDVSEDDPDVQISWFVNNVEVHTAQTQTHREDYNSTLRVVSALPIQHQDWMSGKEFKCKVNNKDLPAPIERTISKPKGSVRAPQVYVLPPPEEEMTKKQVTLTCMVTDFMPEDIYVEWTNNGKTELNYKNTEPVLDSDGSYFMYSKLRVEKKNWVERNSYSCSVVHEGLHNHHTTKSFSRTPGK
The assay is described as follows: ELISA, cynomolgus monkey TIGIT ECD-mFc. The method in brief: as §1
In turn, B1 returned an EC50 of 0.0112 nM.
Same read-out and setting: for B2 the value was 0.0119 nM.
Molecule B3 showed a concentration giving a half-maximal response (EC50) of 0.0139 nM.
Take B4: a half-maximal effect (EC50) was put at 0.0142 nM.
The molecule B5 came in with an EC50 of 0.0157 nM.
Still for that read-out and setting: for B6 the value was 0.0137 nM.

Another assay concerns the target T4, Fusion protein of extracellular domain …. The assay is described as follows: BIAcore.
B1 yielded a Kd of 0.0851 nM, a dissociation rate constant (koff) of 0.000142 s⁻¹ and a kon of 1.67e+06 M⁻¹ s⁻¹.
In the same order, the values of B2 are 0.0756 nM, 0.000134 s⁻¹ and 1.77e+06 M⁻¹ s⁻¹.
The like results for B3 were, in that order, 0.121 nM, 0.000152 s⁻¹ and 1.26e+06 M⁻¹ s⁻¹.
In the same order, the values of B4 are 0.115 nM, 0.000151 s⁻¹ and 1.31e+06 M⁻¹ s⁻¹.
The molecule B5 showed a Kd of 0.129 nM, an off-rate (koff) of 0.000168 s⁻¹ and a kon of 1.3e+06 M⁻¹ s⁻¹.
In the same order, the values of B6 are 0.0724 nM, 0.000129 s⁻¹ and 1.78e+06 M⁻¹ s⁻¹.

For another assay the target is unchanged. Put plainly: BIAcore; KD ratio to TIGIT-CHI-070.
As to B1, the “Fold change vs chimeric antibodies (KD)” value amounted to 0.87 fold.
The same measure, in the same setting: then B2, with 0.77 fold.
On to B3, for which the “Fold change vs chimeric antibodies (KD)” value is 1.23 fold.
Same read-out and setting: for B4 the value was 1.17 fold; for B5, 1.32 fold.
Turning to B6, the “Fold change vs chimeric antibodies (KD)” value amounted to 0.74 fold.

Values taken from patent publication US20240343803A1 (SHANDONG SIMCERE BIOPHARMACEUTICAL, published 2024).
